In patent US20250179152A1:

B1: SR16m (designed binder)
chain: MGSSDLGKKLLEAARAGQDDEVRILMANGADVNALDLFGVTPLHLAAERGHLEIVEVLLKNGADVNAGDAFGRTPLHLAALGGHLEIVEVLLKNGADVNACDLYGVTPLHLAAGLGHLEIVEVLLKNGADVNAQDKFGKTAFDISIDNGNEDLAEILQSSSKLAAALEHHHHHH
B2: SR22 (designed binder)
chain: MGSSHHHHHHSSGLVPRGSHMEQKLISEEDLGSDLGKKLLEAARAGQDDEVRILMANGADVNACDPSGITPLHLAADKGHLEIVEVLLKYGADVNAMDVWGRTPLHLAAFTGHLEIVEVLLKYGADVNACDLNGYTPLHLAAGRGHLEIVEVLLKNGAGVNAQDKFGKTAFDISIDNGNEDLAEILQSSS
B3: FSR16m (designed binder)
chain: MGMEQKLISEEDLDGYIPEAPRDGQAYVRKDGEWVLLSTFLGGGGSLQGGGGSLQGSDLGKKLLEAARAGQDDEVRILMANGADVNALDLFGVTPLHLAAERGHLEIVEVLLKNGADVNAGDAFGRTPLHLAALGGHLEIVEVLLKNGADVNACDLYGVTPLHLAAGLGHLEIVEVLLKNGADVNAQDKFGKTAFDISIDNGNEDLAEILQSSSKLAAALEHHHHHH

Target: wild type Δ19 spike protein on pseudotyped lentivirus (SARS-CoV-2 (Wuhan-1)), P0DTC2
Experiment: cell-based or functional assay

Row | Binder | IC50, pseudotyped lentivirus | Neutralization IC50, pseudotyped lentivirus | fold enhancement of neutralization IC50 upon trimerization (against SR16m)
1 | B1 | 11 µM | 11.6 µM | 
2 | B2 |  | 0.7 µM | 
3 | B3 |  |  | 35000 fold
